Laboratory results published in a protein production outcome set (Wang et al. 2014).

Test: label from the status in PepcDB records
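Note: failed if final PepcDB status was selected cloned or expressed and not failed if soluble or beyond.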

| Sequence | protein production |
| --- | --- |
| MNNTPVEPVRLTPDNPLVSVVIRTKDRPKRLAEAVRSVREQTHRPLEVIVVNDGGWPLPEEALKEQAGDVELILIQLEQNQGRSIAANTGLQAATGRYLCFLDDDDRFLPDHIELLSSCLEHIEHRVCYSDAELCWQVYNVETGEFDIVNRQVFGSRDFNLAELLCGNYIPLNTLLFDRQVLLQVGGFDPQFDIYEDWDLLLRVGSLYPFYHLPRVTAQYNQWSKDHQNFYNHFSQTGQAPLLHITGYDRLIEKNRHLFSADAARHLLSVINRLRAIEAELAQRDAVPAESPLTRLTAQLEQTLATIGPSFATLEGRLADLDACQRDALVSATSKLNEGVSDLDGLRSQVAHLCMEFENASGKIDTSQAELQKTATLLVQTQNLLEDYRKEIARTTELNRLISERDSELRTLRQTIARNEAEITALHKERNEANATISALDEKVAHAETEKASLHQIIAQTEARLASVYGSTSWRIAAPLRAVSVAVRWLLRNTRRAFLLMWWLCTGQYARATNHAFPHLWRHVPPRLKMIIPPRLAGSVKRRLHLADITAPRPLENQPDNSHPDTTAEAHVTLDVPERHYVDLSSEPVAHTPIKAIAFYLPQFHTIPENDKWWGEGFTEWTNTRKGKPLFDGHHQPRVPLHLGYYNLENIEVYAQQVQLARKAGLYGFCFYFYWFGGKTLLEKPLLNMLANPQIDQPFCLCWANENWTRRWDGLDDDILIAQHHSEEDAIAFLRYINTYFRDDRYIKIDGKPLLLVYRPSIIPDITHIQEVWRKHATELGWPGIYLVSAQTFGQKDPRDFHFDAAVQFPPQHAAPCAAFHSETPNLADDFEGCVFDYHNVATQFCDSPEVDYKLFRSVTLAWDNSARRGKRATILRNFSLTSYAQWLLTACKATLADHNLTENERLVFINCMERMGRGHLSGAGHQIWLWIPGSHKKGAECILGWKTQAIRNRSKL | failed |
| MNPADWIDTGAVPPRPLPAKVDAALAYLAEALGHPVYAHWTLTRIKRRYGSLADAKAAQPTVLKLLLTHDGAVEYWERGRLRTAPADQAPSPDAVLARLLHTHRRRFRSADASANAGAVPATAQTTGLVANPWLAAHSHADHAWLARTGRFAQPQAAANTLGAVDDAQALALFLRDRTGRSSHTLRAYGAELRRLMRWCGTHGFGPFSDLTRQQLLAYRHTLEHGSSGTANTTPPLSEATRTRALAVVASLYGYWYATGYLHANPAAGLSAGSRARSGFVPTRLIPSALLDACDAWLDANSAGDLLPALRQRAIWALYRYAGVRLAELAWSAETALPRLEAEAPGRWTLYVCGKGRKVRAIPLPAQCMVVLRAYRRARGLPPEPSAHETLPVIHGSKGEALQQTGLYREIKAIFAVVADGLQAREPAKAMLLRAASPHWLRHAYARTLVVDHQVPLPAAQALLGHASVQTTAAYAKTDLTQLRAFVDATFADDVP | failed |
| MNPAPFLLLGGALAWLTLYLLGGRKVKAGEFILGAIIFPLSITLQNIVQQLPLLWVGIRPDITSLGTSEIIAISIWMGLIAGIFQELFKYIFVRGKSAGYAFSVGLGFAISEVIFITALVTLSAKGGTPSQPFATNLLSLAERYLVVLFHVGTAIMLTQGTRKVLIEVIGLHALIDSMAAYYQLMSAVYIKTNKIYMIPRILLLTEIVLAVITVIVLIASLPKISQVKEEKEEVIW | failed |
| MNPAYRKAMLESEIQKLLMEALQQLRDPRLKKDFVTFSRVELSKDKRYADVYVSFLGTPEERKETVEILNRAKGFFRTFIAKNLRLYVAPEIRFYEDKGIEASVKVHQLLVQLGYDPLKDKEKKEEDKEEE | not failed |
| MNPEPRCPCVLLLDTSGSMQGAAIEALNQGLLSLKDELMKNSIAARRVEIAIVTFDSHINVIQDFVTADQFNPPILTAQGLTSMGAGIHKALDMVQERKSLYRANGVAYYRPWVFMITDGEPQGELDHLVEQAALRLQGDEVNKRVAFFSVGVENANMTRLNQIAVRTPLEHHHHHH | failed |
| MNPFTYSKPTDITAAVNLSGPATRFIAGGTNLLDLMKENVATPEHLIDITGLPLREVSETASGGLMIGALVSNADLAYHPLIEARYPLLSKAVLAGASPQLRNMASTGGNLLQRTRCYYFYDTGVPCNKREPGSGCPAREGLNRIHAILGASDECVATHPSDMCVALAALEAVVHVEGRAGRRTIEFADFHRLPGDAPQRDNQLADDELIIAVELPAQGFASHNAYLKIRDRASYAFALISVAAAIDLDGDVVRDVRLALGGVAHKPWRDKAVEALLIGKPVTREHFAAAADAMLEDAKPLEHNGFKVRLARRAIIRALSDAATGGSAL | not failed |
| MNPILNLIISFIALLWAANHLVAGSSGLAIRFQLSPLMIGLTIVALGTSAPELFISIISSLKDKNDLAIGNAIGSNIANIGLILGIIILIKPTSFHFNKLKKVYPILIIVMLFAYSLILDGYLGTIDGCLFLIGCIAVLCYFIYLASHSPKRDLSVNEFRPAILSYRSTPSNLLSIAIGLLILPICSKYLVYNASEIAKWAGISEFTIGLTIIAIGSSLPELTTALVAAIKGEDSIAIGTIIGSNIYNLLLILALPGLLNPTKISSVVLWRDMPVMLSITLLLLFLNYYYQKKTSSWPGGILLLVYFCYMASLIINAHS | failed |
| MNPKVKGIIAILVSAIGFSFMSVFFRLAGDLPVFQKSLARNLVAMFIPLYFIYKYKQPLFGKLSSQPLLISRSTLGLIGVLLNIYAIDHMILSDADTLMKLNPFWTILLSLIFLNEKVRNYQIIAMVIAIFGMLFVVKPEFSSSMIPAIGGLFSGIFAASAYTCVRALSTREAPYTIVFYFSFFSIVVLIPFTIFTFEPMSMMQVIYLIGAGLAAAAGQIGITLAYSYAPAKDISIFTYASIIFTAFFGFILFGESPDFYAILGYVIIIASSYYMFEKARRQPLSIQKEEQKPKT | failed |
| MNPRLALALKLLEAGLVESAAIPVAQALERDPDDPRAHHLAGLIARRGGDGALALAAFTRGLAVAADDAPLRIERAGLLLDLGRAEEALADLAVALALAPDHQAVLSTQGRALIDLGRPGEALAPLRRARALAPDDVAPAHNLGRALLALDRPDEALPLLEAAVARAPGAIDPRADLAEALRRLDRPGDAAQLLRAVLADAPGRADLADALAGALLAAGAVDESVAVLRASLDKAPTHGAGWVNLAAALIETGALDEATAAADRALALDPDDADAKVNRAFARCLADDYEQGFADYAHRWRTAAFQRPYPPVTAPPWAGEPLGEGTLLVRGEQGLGDQIMAARFLPWLSKRPDRPRRIVFECHPCLHRLLAEGLEAGIDLLAMGRPPPPVAAWIGALDLARMAGVTAGVMPVDVPYLKARPPVPPLAPPLPPGGRGRLGLVWAGKTRPRDRSCPLEPLAGLCVDQGWTVHALQLGPRRADLAGLPAGLGVIDEGDRLGDMAATASVMAGLDLVVAVDTAVAHLAGALGLPCALLLLATPDWRWGQKASRTVWYPSLRLFRQPHPGDWDGAFDAVRRAFAQGWPLS | failed |
| MNQEKLLALMMDLHQDGARQGPGSETETLRALELTRIDPLAKLQVADIGCGTGASTLVLASKLQNAQITAIDIFPEFLDVLSTRAKVMGYSEKIETLTESMDKLSFADESLDLIWSEGAIYNLGFAQGIECWKPMLKTGGVLAVSEITWLNPLPPEEIRQHWNTEYPEIATASEKIAILEHGGYDLIGYFILPSTNWLDSYYTPVEERIHDFLKRHRGDLEAEELIKMERREMDLYSRFKNWFSYGFYVARKR | failed |
| MNQHTLLPKKTERLQYFGSVSPIKGEKPVEKEKMKDLQNIRKDYFFDIQHVGVANVSHPVTITSAMMPAEQTTAANFTMTCNLPRNQKGINMSRLTELLQVYHQNGWILSFSSLQQFTKELAENMDTSSATVEVRFPWFFERKSPKLEKAGLMHADIFMSVTYRKDQPFKQRAGISAKVTTLCPCSKEISEYSAHNQRGTVKHLGRIFTRAASLPSDVKADLPHAAESNASARLHPVLKRPDEKAVTETAYENPRFVEDLARLIAADLFELEWVSAFEIECRNEESIHLHRCLCEVCFSKEVDKI | failed |
| MNQLEFEQVSLYQIIVDSEKLAQEIYYQIEDEEISFYEAAYLYDVDAVRRQRCGYEGKVYRFSLPVNVATVIFRTSPKQLISPLQTEQGYHLFMVEEFIPAELEHHHHHH | failed |
| MNQLTAYTLRLGDNCLVLSQRLGEWCGHAPELEIDLALANIGLDLLGQARNFLSYAAELAGEGDEDTLAFTRDERQFSNLLLVEQPNGNFADTIARQYFIDAWHVALFTRLMESRDPQLAAISAKAIKEARYHLRFSRGWLERLGNGTDVSGQKMQQAINKLWRFTAELFDADEIDIALSEEGIAVDPRTLRAAWEAEVFAGINEATLNVPQEQAYRTGGKKGLHTEHLGPMLAEMQYLQRVLPGQQW | not failed |
| MNQPSSLAADLRGAWHAQAQSHPLITLGLAASAAGVVLLLVAGIVNALTGENRVHVGYAVLGGTAGFAATALGALMALGLRAISARTQDAMLGFAAGMMLAASAFSLILPGLDAAGTIVGPGPAAAAVVALGLGLGVLLMLGLDYFTPHEHERTGHQGPEAARVNRVWLFVLTIILHNLPEGMAIGVSFATGDLRIGLPLTSAIAIQDVPEGLAVALALRAVGLPIGRAVLVAVASGLMEPLGALVGVGISSGFALAYPISMGLAAGAMIFVVSHEVIPETHRNGHETTATVGLMAGFALMMFLDTALG | failed |
| MNQSIIFTEQLTWDVQLSAIHFTAQQQGMVIDCYIGQKVLEHLAAEKINNSEQALSLFEQFRFDIEEQAEKLIEQEAFDVQGHIQVERVD | not failed |
| MNQVEMTEFPVGKPEEALYGVASTPDGALWFTLAKGNAIGRLSPDGEVSRFPLPHADGQPTTITCGPDGRPWFTLSSANAVGRLSPDGALRMFELPRPASRPFGIAAGHDGCLWFAEMAGDRIGRITIDGDIEEYDLPVKGGYPSCMAAGRDGLMWFTLNQAGAIGSISATAAPRIFPLGAADAAPVGIASDAQGALWIAQAGNGAIARFDAGGRITEFPLHSRAARPHALAADAAGNLWFTEWGANRIGRISEAGDTAGYELAAPGSEPHGIAIDPHGCVWAALETGSLVRLQASPRD | failed |
| MNQYVKIEVQQGDTLWSIADQVADTKKINKNDFIEWVADKNQLQTSDIQPGDELVIPLKKKHQDAYELATLEHHHHHH | failed |
| MNRDLSSFKRTMNTLAVSSDVAFFNITLRFWIRRNDETREQGKFKPHTDLPRLQSFYLDYYQKNVMDVIKIIGNQYTILKEIESSAHSAAIRAIHAALPPHKINGDSRKQADSYIQHACDTAGVLFRVLELLSEDVQLPSEFLEADADVKQLAEIFRPYNIIPLYICGKYSMKRLPEY | failed |
| MNREEVLKQLQSIFRDILKKDNVCIDESSTSKDVDGWDSLTHMQIIAQIEKHFGVRFNFREVIKFKNVGDLCSALLTKMELEHHHHHH | not failed |
| MNRISVVILNWNGCEMLRSFLPSVLRYSEAEGVEVCVADNGSTDQSVEMLRREFPSVRRILLDGNHGFADGYNLALRQVEAEYVVLLNSDVEVTGQWLQPMAAYLDAHPEVAACQPKIRSWRQKEWFEYAGAAGGFIDRYGYPFCRGRVMGVVEADRGQYDTVLPIFWATGAAMFIRLADYREAGGLDGRFFAHMEEIDLCWRLRARGRGIVCIPQSVVYHVGGATLKKENPHKTFLNFRNNLVMLYKNLPDRELAGVMRVRCWLDYIAAATFALKGQPANAKAVVRARREFKLLRDSFRDARAENLRKTSSHFIPERIKSSILVQFYVKGRKFFSQLSDLKG | failed |
| MNRIWLRAIILTASSALLAGCQFGGLNSLPLPGTAGHGEGAYSVTVEMADVATLPQNSPVMVDDVTVGSVAGIVAVQRPDGSFYAAVKLDLDKNVLLPANAVAKVSQTSLLGSLHVELAPPTDRPPTGRLVDGSRITEANTDRFPTTEEVFSALGVVVNKGNVGALEEIIDETHQAVAGRQAQFVNLVPRLAELTAGLNRQVHDIIDALDGLNRVSAILARDKDNLGRALDTLPDAVRVLNQNRDHIVDAFAALKRLTMVTSHVLAETKVDFGEDLKDLYSIVKALNDDRKDFVTSLQLLLTFPFPNFGIKQAVRGDYLNVFTTFDLTLRRIGETFFTTAYFDPNMAHMDEILNPPDFLIGELANLSGQAADPFKIPPGTASGQ | failed |
| MNRLKKWIRYVPDRIDDGLRYLCGRMSPDVRLVCVVVMLTGFGCLSIYMTVSSIYRIGRHEGEQLQMDHIRRMELYRGINKDSINIKNQVDYGEPKKSGTATGERCNA | failed |
